Experiment [1] has as its target T1, human PD-1-rCD4 (human; rat, UniProt Q15116 25-170; P05540 207-392, limits assumed).
T1 construct: Analyte in SPR
Briefly: SPR (BIAcore T100), IgG2 captured on anti-human Fc, PD-1 injected, 1:1 fit. (Surface plasmon resonance follows binding to a sensor surface in real time, without labels.)

Experiment [2] has as its target T2, cynomolgus monkey PD-1-rCD4 (cynomolgus monkey; rat). Described as above.
The target of experiment [3] is T3, PD-1-Fc (UniProt Q15116 25-167, limits assumed).
T3 construct: not shown: Fc part, detected with anti-human IgG Fc
The experiment can be described thus: competition ELISA: PD-1-Fc (0.8 nM) premixed with 0.5 nM antibody, added to captured PD-L1-rCD4 (competitor). Background: ELISA stands for enzyme-linked immunosorbent assay.

For experiment [4], the target named is T3, PD-1-Fc. Briefly: competition ELISA: PD-1-Fc (0.8 nM) premixed with 1 nM antibody, added to captured PD-L1-rCD4 (competitor).
Experiment [5] concerns the target PD-1 expressed on Jurkat cells (NFAT-luc2/PD-1 Jurkat Cells, Promega, CS187102) (UniProt Q15116 25-288, limits assumed). Briefly: cell-based or functional assay.
The target of experiment [6] is T2, cynomolgus monkey PD-1-rCD4. Briefly: SPR, ratio of KD values, Table 2.
Experiment [7] concerns the target T3, PD-1-Fc. Briefly: competition ELISA: PD-1-Fc (0.8 nM) premixed with 8 nM antibody, added to captured PD-L1-rCD4 (competitor).
Experiment [8] addresses T4, mouse PD-1 (mouse, UniProt Q02242 25-167, limits assumed).
T4 construct: also called murine PD-1
T4 sequence (looked up): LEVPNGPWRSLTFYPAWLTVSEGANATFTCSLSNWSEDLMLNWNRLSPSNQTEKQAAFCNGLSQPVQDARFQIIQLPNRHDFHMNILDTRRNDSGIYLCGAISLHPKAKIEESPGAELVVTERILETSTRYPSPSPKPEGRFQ
The experiment can be described thus: SPR (BIAcore T100), IgG2 captured on anti-human Fc, PD-1 injected, 1:1 fit.

Experiment [9] concerns the target T1, human PD-1-rCD4. Briefly: SPR (BIAcore T100), IgG2 captured on anti-human Fc, PD-1 injected, 1:1 fit; Table 1 prints 3.8.
Experiment [10] concerns the target T2, cynomolgus monkey PD-1-rCD4. Briefly: SPR (BIAcore T100), IgG2 captured on anti-human Fc, PD-1 injected, 1:1 fit; Table 1 prints 8.7.

Positions count from the first letter of the chain named.

T1 sequence (Q15116 other isoform, or with tags, fused parts or gaps limits assumed): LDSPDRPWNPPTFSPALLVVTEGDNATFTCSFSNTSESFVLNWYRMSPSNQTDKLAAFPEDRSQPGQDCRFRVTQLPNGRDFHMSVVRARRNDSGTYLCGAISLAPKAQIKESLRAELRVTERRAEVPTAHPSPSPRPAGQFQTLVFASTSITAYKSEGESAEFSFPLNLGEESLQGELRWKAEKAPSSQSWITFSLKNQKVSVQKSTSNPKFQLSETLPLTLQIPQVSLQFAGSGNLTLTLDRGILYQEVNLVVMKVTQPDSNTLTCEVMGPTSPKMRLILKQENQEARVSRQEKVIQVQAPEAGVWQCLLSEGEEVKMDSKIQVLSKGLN
T2 sequence (P05540 207-392): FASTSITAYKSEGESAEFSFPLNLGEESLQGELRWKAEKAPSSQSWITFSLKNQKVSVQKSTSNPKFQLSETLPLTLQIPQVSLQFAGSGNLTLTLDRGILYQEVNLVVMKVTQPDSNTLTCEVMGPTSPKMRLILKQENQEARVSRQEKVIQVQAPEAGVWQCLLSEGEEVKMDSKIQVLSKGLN
T3 sequence (Q15116 25-167 limits assumed): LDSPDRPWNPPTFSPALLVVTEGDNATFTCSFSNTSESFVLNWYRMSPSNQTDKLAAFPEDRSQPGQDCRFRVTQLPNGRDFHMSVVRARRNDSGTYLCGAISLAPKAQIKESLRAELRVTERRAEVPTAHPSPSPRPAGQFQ
Sequence of PD-1 expressed on Jurkat cells (NFAT-luc2/PD-1 Jurkat Cells, Promega, CS187102) (Q15116 25-288 limits assumed): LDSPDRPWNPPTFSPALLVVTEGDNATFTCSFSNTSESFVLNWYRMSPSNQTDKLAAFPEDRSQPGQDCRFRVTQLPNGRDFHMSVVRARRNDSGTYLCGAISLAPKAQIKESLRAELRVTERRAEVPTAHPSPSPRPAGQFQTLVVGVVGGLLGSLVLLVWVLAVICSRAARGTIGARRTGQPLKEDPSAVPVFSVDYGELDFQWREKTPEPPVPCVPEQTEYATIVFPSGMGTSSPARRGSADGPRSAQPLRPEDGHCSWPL

B1: 273_C01_A12 (antibody, human IgG2, kappa, V domains shown)
VH: EVQLVQSGAEVKKPGSSVKVSCKASGYTFTSYYVHWVRQAPGQGLEWMGGIIPIFGTANYAQKFQGRVTITADESISTAYMELSSLRSEDTAVYYCARDLHGYSYGYPGYWGQGTLVTVSS
VL: DIVMTQSPLSLPVTLGQPASISCRSSQSLVYSDANTYLNWFQQRPGQSPRRLIYEVSNRESGVPDRFSGSGSATDFTLKISRVEAEDVGVYYCMQGTQLPLTFGGGTKVEIKR
Broadly, the Kd is the free concentration of one partner at which half of the binding sites on the other are occupied at equilibrium, for simple one-to-one binding. Broadly, the koff is the first-order rate constant of dissociation. Broadly, the kon is a measure of how fast the partners come together. B1: the Kd in experiment [1] was determined as 10 nM; in experiment [2], 21 nM. In addition, the values for the koff in experiment [1] and in experiment [2] were 0.0061 s⁻¹ and 0.0115 s⁻¹, respectively. Also, the kon in experiment [1] came to 606000 M⁻¹ s⁻¹; in experiment [2] it was 548000 M⁻¹ s⁻¹. The “% inhibition of the PD-1/PD-L1 interaction” value is about 75% in [3], about 99% in experiment [4] and 99% in experiment [7]. Further, the “EC50, NFAT-luciferase reporter activity (PD-1/PD-L1 cell reporter assay)” value in experiment [5] is 11.7 nM. Also, the “Fold Difference (Kd on cynomolgus PD-1 against Kd on human PD-1)” value in experiment [6] came to 2.1 fold.

B2: 273_C12_C05 (original clone) (antibody, human IgG2, kappa, V domains shown)
VH: B1 VH with I76T
VL: B1 VL with S32H, A34G, E60D, A73D, T97A, Q98Y, L99R, G105Q
Consider B2, for which the Kd in experiment [1] is 3.8 nM; in experiment [8], 6400 nM; in experiment [2], 8.7 nM; in experiment [9] it was 3.84 nM; in experiment [10], 8.77 nM. Moreover, the results for the koff in experiment [1], in experiment [8] and in [2] were 0.0015 s⁻¹, 0.00357 s⁻¹ and 0.0034 s⁻¹, respectively. The kon was found to be 392000 M⁻¹ s⁻¹ in experiment [1] and 387000 M⁻¹ s⁻¹ in experiment [2]. In addition, the figures for the “% inhibition of the PD-1/PD-L1 interaction” value in experiment [3], in experiment [4] and in [7] were about 75%, about 99% and 99%, respectively. The “EC50, NFAT-luciferase reporter activity (PD-1/PD-L1 cell reporter assay)” value in experiment [5] turned out to be 9.35 nM. For the same molecule, the “Fold Difference (Kd on cynomolgus PD-1 against Kd on human PD-1)” value in experiment [6] turned out to be 2.29 fold.

B3: Nivolumab (IgG2 format, as used in the experiments of the filing) (antibody, V domains shown)
VH: QVQLVESGGGVVQPGRSLRLDCKASGITFSNSGMHWVRQAPGKGLEWVAVIWYDGSKRYYADSVKGRFTISRDNSKNTLFLQMNSLRAEDTAVYYCATNDDYWGQGTLVTVSS
VL: EIVLTQSPATLSLSPGERATLSCRASQSVSSYLAWYQQKPGQAPRLLIYDASNRATGIPARFSGSGSGTDFTLTISSLEPEDFAVYYCQQSSNWPRTFGQGTKVEIKR
In experiment [2], B3 displayed a Kd of 5.22 nM.

The values above are taken from WO2018087143A2 (dated 2018).
